The values that follow come from patent US20110009319A1 (RESEARCH DEVELOPMENT FOUNDATION, published 2011).

Assay [1] deals with T1, activin-A (UniProt P08476 311-426, [125I] label in the crosslinking assays (site not stated)).
T1 construct: The ~14 kDa monomer implies the processed mature chain; Unlabelled protein was used in the luciferase assays; also called bA-bA
T1 sequence (looked up): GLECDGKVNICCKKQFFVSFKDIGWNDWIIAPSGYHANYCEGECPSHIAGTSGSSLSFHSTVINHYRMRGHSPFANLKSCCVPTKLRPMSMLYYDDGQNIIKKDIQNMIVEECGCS
Kind of assay: activin crosslinking assays. The procedure:
Cells were transfected with […] DNA per well with ratios of 0.5 mg TbRII/0.5 mg ALK5/3 mg Cripto unless otherwise indicated for [¹²⁵I]-TGF-b1 crosslinking or […] ActRII/1 mg Cripto/1 mg vector for [¹²⁵I]activin-A crosslinking. As necessary, empty vector was used to keep the amount of DNA transfected constant at […]. […] Cells were then rinsed in HDB, incubated in HDB containing 0.5 mM disuccinylsuberate (DSS) for 30 min on ice, rinsed in HDB and then solubilized in lysis buffer (TBS containing 1% NP-40, 0.5% deoxycholate and 2 mM EDTA) for 1 h on ice. Solubilized, crosslinked complexes were incubated for approximately 24 h at 4° C. with […] of either anti-FLAG (M2), anti-His or anti-myc antibodies. Immune complexes were precipitated using protein-G agarose and analyzed using SDS-PAGE and autoradiography.

Assay [2] addresses T1, activin-A. Kind of assay: not described at this place.

B1: Cripto DEGF mutant (receptor)
chain: FEFGPVAGRDLAIRDNSIWDQKEPAVRDRSFQFVPSVGIQNSKEHCGSILHGTWLPKKCSLCRCWHGQLHCLPQTFLPGCD
modifications: C-terminal GPI anchor
Consider B1, for which, in the assay with activin-A [1], the binding result is recorded as “no binding”.

B2: Cripto EGF1•2mCFC mutant (N69G, T72A, R88G, E91G, H104G, W107G) (receptor)
chain: FEFGPVAGRDLAIRDNSIWDQKEPAVRDRSFQFVPSVGIQNSKSLNKTCCLGGGACILGSFCACPPSFYGGNCGHDVRKEHCGSILGGTGLPKKCSLCRCWHGQLHCLPQTFLPGCD
modifications: C-terminal GPI anchor
B2: the binding result with activin-A [2] is reported as “no binding”.
